The target in one assay is B. malayi iPGM (Brugia malayi, UniProt Q4VWF8). The assay can be described thus: biochemical.
In a further assay the target is O. volvulus iPGM (Onchocerca volvulus, UniProt I6LDA6). Briefly: biochemical.
The next assay has as its system D. immitis iPGM. It counts as biochemical, Dirofilaria immitis.
The target in another assay is E. coli iPGM (Escherichia coli, UniProt P37689). Briefly: biochemical.
Assay [1] relates to iPGM orthologs and dPGM isozymes. The assay is classed as biochemical.
Assay [2] concerns the target T1, C. elegans cofactor-independent phosphoglycerate mutase (iPGM) (Caenorhabditis elegans), G5EFZ1.
T1 chain: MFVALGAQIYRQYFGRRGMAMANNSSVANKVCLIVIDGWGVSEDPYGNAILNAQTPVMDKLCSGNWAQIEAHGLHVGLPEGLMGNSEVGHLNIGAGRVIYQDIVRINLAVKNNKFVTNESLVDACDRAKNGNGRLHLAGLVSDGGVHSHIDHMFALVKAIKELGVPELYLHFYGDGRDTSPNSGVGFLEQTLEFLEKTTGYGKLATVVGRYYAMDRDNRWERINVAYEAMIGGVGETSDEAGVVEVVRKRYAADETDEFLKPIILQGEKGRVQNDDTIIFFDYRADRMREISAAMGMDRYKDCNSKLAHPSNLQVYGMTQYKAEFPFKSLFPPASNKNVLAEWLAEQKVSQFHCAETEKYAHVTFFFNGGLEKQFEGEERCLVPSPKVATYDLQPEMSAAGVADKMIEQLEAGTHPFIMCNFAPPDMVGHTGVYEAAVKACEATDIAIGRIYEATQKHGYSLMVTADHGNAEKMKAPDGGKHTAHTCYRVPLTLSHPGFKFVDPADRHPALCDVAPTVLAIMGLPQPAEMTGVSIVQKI
Briefly: cell-based or functional assay.

The target in assay [3] is T2, E. coli cofactor-dependent phosphoglycerate mutase (dPGM) (Escherichia coli), P62707.
T2 chain: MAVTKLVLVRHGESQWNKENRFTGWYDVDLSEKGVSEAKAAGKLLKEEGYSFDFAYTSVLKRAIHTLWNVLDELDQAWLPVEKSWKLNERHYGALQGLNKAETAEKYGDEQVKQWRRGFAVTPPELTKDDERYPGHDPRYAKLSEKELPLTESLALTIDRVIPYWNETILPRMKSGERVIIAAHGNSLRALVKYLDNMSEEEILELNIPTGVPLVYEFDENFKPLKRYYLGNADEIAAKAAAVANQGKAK
The assay can be described thus: cell-based or functional assay.

Assay [4] addresses T3, E. coli cofactor-independent phosphoglycerate mutase (iPGM) (Escherichia coli), P37689. The assay can be described thus: cell-based or functional assay.
The target in assay [5] is H. sapiens cofactor-dependent phosphoglycerate mutase (dPGM) (Homo sapiens), P18669. The assay can be described thus: cell-based or functional assay.
In assay [6] the target is T1, C. elegans cofactor-independent …. Briefly: cell-based or functional assay.
In assay [7] the target is T3, E. coli cofactor-independent …. The assay can be described thus: cell-based or functional assay. The source holds these as a separate data set.
Assay [8] has as its target T4, B. malayi cofactor-independent phosphoglycerate mutase (iPGM) (Brugia malayi), Q4VWF8.
T4 chain: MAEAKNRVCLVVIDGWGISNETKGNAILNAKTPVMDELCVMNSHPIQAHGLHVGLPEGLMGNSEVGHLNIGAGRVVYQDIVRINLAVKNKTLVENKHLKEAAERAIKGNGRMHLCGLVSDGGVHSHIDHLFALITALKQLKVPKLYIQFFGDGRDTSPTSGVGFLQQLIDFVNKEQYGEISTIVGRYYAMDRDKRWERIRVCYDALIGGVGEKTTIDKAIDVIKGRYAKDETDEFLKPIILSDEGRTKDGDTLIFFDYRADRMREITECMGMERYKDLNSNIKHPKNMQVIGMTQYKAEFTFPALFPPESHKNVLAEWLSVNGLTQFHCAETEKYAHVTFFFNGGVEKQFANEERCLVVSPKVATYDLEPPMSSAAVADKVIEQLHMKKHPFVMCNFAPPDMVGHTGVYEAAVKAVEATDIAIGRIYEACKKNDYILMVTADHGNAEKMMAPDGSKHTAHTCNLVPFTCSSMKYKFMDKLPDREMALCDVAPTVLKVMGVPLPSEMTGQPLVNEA
The assay can be described thus: cell-based or functional assay.

Assay [9] deals with T5, O. volvulus cofactor-independent phosphoglycerate mutase (iPGM) (Onchocerca volvulus), I6LDA6.
T5 chain: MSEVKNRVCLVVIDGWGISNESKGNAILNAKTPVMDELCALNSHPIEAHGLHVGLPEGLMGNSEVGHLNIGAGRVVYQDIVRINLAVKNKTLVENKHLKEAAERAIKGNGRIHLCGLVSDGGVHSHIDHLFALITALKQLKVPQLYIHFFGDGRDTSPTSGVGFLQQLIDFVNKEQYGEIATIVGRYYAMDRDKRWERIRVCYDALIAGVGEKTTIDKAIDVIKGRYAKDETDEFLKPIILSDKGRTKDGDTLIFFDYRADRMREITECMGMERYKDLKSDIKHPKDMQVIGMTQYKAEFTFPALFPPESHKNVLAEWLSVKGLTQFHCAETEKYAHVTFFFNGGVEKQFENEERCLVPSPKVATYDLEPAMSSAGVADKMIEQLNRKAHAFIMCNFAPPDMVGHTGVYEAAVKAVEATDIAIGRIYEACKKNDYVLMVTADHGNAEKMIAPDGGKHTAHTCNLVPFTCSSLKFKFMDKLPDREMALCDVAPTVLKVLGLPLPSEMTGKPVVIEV
The assay can be described thus: cell-based or functional assay.

A further assay concerns the target iPGM orthologues. Briefly: cell-based or functional assay.
Assay [10] deals with T5, O. volvulus cofactor-independent …. The assay can be described thus: cell-based or functional assay.
The target in assay [11] is T4, B. malayi cofactor-independent …. Briefly: cell-based or functional assay.
In assay [12] the target is T5, O. volvulus cofactor-independent …. Briefly: cell-based or functional assay.
Assay [13] deals with T1, C. elegans cofactor-independent …. The assay can be described thus: quadratic (stoichiometric binding) model fitted to concentration response curves of the coupled bioluminescent enzyme assay at several C. elegans iPGM concentrations (FIG. 10B).
Where [14] appears, read: read-out: B. malayi iPGM Max Inhibition.
Setting [15] is: read-out: O. volvulus iPGM Max Inhibition.
Setting [16] is: read-out: E. coli iPGM Max Inhibition.

From patent publication US20200399318A1, “PEPTIDE INHIBITORS OF PHOSPHOGLYCERATE MUTASE AND METHODS OF USE” (priority 2016, published 2020) come the findings set out here.

Values joined by “and” are separate entries in the source; they are usually repeats but may differ in a detail not shown here. Identical values can stand only once. Like-named read-outs stand apart in the source and are kept apart here. Where a SMILES comes first, the peptide text is derived from it. Bridges are numbered along the chain shown (N, C = ends). [ ]: non-standard residue; d: D form.

Chain of E. coli iPGM (P37689 whole entry, looked up): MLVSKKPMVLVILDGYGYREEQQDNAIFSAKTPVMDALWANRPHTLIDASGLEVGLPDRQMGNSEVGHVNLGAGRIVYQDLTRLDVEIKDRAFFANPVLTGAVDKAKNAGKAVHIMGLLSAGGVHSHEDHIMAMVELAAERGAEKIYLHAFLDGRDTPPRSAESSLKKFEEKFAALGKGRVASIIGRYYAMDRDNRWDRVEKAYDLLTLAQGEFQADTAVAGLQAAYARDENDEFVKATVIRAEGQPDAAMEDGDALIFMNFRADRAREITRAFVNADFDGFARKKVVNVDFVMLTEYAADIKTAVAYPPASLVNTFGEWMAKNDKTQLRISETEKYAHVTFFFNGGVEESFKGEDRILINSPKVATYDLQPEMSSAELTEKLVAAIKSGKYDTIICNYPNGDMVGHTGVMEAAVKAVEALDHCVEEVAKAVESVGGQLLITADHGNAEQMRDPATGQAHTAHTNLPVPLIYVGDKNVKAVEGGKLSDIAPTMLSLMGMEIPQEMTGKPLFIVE

In the case of ^Ac-DYLYGTCG [Ce-2tail], at B. malayi iPGM, the “B. malayi iPGM Max Inhibition” value was −10.2 ± 3.3. Also, the “O. volvulus iPGM Max Inhibition” value at O. volvulus iPGM is on record as −11.6 ± 5.3. Moreover, in the assay on D. immitis iPGM, the “D. immitis iPGM Max Inhibition” value is recorded as −1.9 ± 10.3. For the same molecule, the “E. coli iPGM Max Inhibition” value on E. coli iPGM is −21.1 ± 2.7. In assay [1], the “activity on all PGMs” value is “inactive”.

As for ^Ac-DYDYPGDYSYLY [Ce-L2d], the “B. malayi iPGM Max Inhibition” value on B. malayi iPGM is reported as −7.3 ± 2.0. The “O. volvulus iPGM Max Inhibition” value on O. volvulus iPGM is −15.7 ± 8.3. Also, the “D. immitis iPGM Max Inhibition” value with D. immitis iPGM is −5.2 ± 4.9. For the same molecule, the “E. coli iPGM Max Inhibition” value on E. coli iPGM is listed as −21.1 ± 2.4. In addition, the “inhibitory activity on the iPGM orthologs” value in assay [1] is “completely inactive”.

As a reminder, the inhibition is the change of the read-out against control, counted positive when it falls. In the case of `CC(C)C[C@H](NC(=O)[C@H](Cc1ccc(O)cc1)NC(=O)[C@@H]1CSCC(=O)N[C@H](Cc2ccc(O)cc2)C(=O)N[C@@H](CC(=O)O)C(=O)N[C@@H](Cc2ccc(O)cc2)C(=O)N2CCC[C@H]2C(=O)NCC(=O)N[C@@H](CC(=O)O)C(=O)N[C@@H](Cc2ccc(O)cc2)C(=O)N1)C(=O)N[C@@H](Cc1ccc(O)cc1)C(=O)NCC(=O)N[C@H](C(=O)N[C@@H](CS)C(N)=O)[C@@H](C)O` [Ce-2a], the “B. malayi iPGM PIC50, M” value at B. malayi iPGM is 8.07 ± 0.10 M and 9.49 ± 0.08 M. On B. malayi iPGM (setting [14]), the Emax is 99.2 ± 5.3% and the inhibition at 0.0005 µM came out at 100.3 ± 0.8%. On O. volvulus iPGM, the “O. volvulus iPGM PIC50, M” value is listed as 7.31 ± 0.09 M and the “pIC50 O. volvulus iPGM” value came out at 9.68. In addition, at O. volvulus iPGM (setting [15]), the Emax came out at 97.7 ± 4.4% and the inhibition at 0.0005 µM amounted to 97.5 ± 2.7%. For the same molecule, in the assay on D. immitis iPGM, the “D. immitis iPGM Max Inhibition” value was −100.1 ± 5.6 and the “D. immitis iPGM PIC50, M” value stood at 9.68 ± 0.09 M. Moreover, the “D. immitis iPGM Max Inhibition” value with D. immitis iPGM (0.0005 µM) is −92.5 ± 4.0. For the same molecule, the “E. coli iPGM PIC50, M” value on E. coli iPGM is 8.51 ± 0.14 M and 9.58 ± 0.02 M. Also, at E. coli iPGM (setting [16]), the Emax came out at 99.2 ± 8.5% and the inhibition at 0.0005 µM worked out at 84.1 ± 9.5%. Besides, the “inhibitory activity on the iPGM orthologs” value in [1] is given as “subnanomolar potency”.

Regarding `CC(C)C[C@@H]1NC(=O)[C@@H](Cc2ccc(O)cc2)NC(=O)CSC[C@@H](C(=O)N[C@@H](CC(N)=O)C(=O)N[C@H](C(=O)N[C@@H](CS)C(=O)NCC(N)=O)[C@@H](C)O)NC(=O)[C@H](CC(N)=O)NC(=O)[C@@H]2CCCN2C(=O)[C@H](Cc2c[nH]c3ccccc23)NC(=O)[C@H](CCC(=O)O)NC1=O` [Bm-4] ({CH2CO}-[dY]LEWPNCNTCG-NH2; thioether N-7), on B. malayi iPGM, the “pIC50 B. malayi iPGM” value was found to be 6.24. The Emax at B. malayi iPGM (setting [14]) came to 86.3 ± 1.4%; on O. volvulus iPGM (setting [15]), 85.7 ± 6.5%; at E. coli iPGM (setting [16]), 76.3 ± 8.3%. For the same molecule, the “pIC50 O. volvulus iPGM” value against O. volvulus iPGM is given as 6.10. Moreover, the “D. immitis iPGM Max Inhibition” value in the assay on D. immitis iPGM was −88.1 ± 0.8. The “E. coli iPGM PIC50, M” value at E. coli iPGM turned out to be 5.56 ± 0.16 M.

Usually IC50 stands for the midpoint of a concentration-inhibition curve. As for YDYPGDYCYLY (modifications not checked) [Ce-2d], in [2], the Max Inhibition is -103, the Max Inhibition (* iPGM 500 pM) is -100, the pEC50 (GEMBE) stood at 8.49 pEC50 and the pIC50 is 8.56 pIC50 (M). Also, the pIC50 (* iPGM 500 pM) in assay [2] was 9.03 pIC50 (M). In assay [3], the Max Inhibition was -6.3 and the Max Inhibition (* series) was 2.3. Also, in [4], the Max Inhibition was -102, the pEC50 (GEMBE) is 8.5 pEC50 and the pIC50 is 8.71 pIC50 (M). In assay [5], this molecule had a Max Inhibition of -1.2 and a Max Inhibition (* series) of 7.9. Also, in assay [6], the half-inhibitory concentration (IC50) was 3.9 nM and 3.88 nM; the pIC50 worked out at 8.41 pIC50. In [7], the IC50 was 770 pM and the pIC50 was 9.12 pIC50.

For the molecule YDYPGDHCYLYGTCG (modifications not checked) [Ce-1 (ipglycermide A)], the Max Inhibition is -94 in assay [8]; -95.8 in assay [2]; 5 in [3]; -96.5 in assay [4]; 4 in assay [5]; -95.4 in assay [9]. Besides, the pIC50 is 7.92 pIC50 (M) in [8]; 8.4 pIC50 (M) in assay [2]; 8.38 pIC50 (M) in assay [4]; 7.61 pIC50 (M) in assay [9]; 7.62 pIC50 in assay [10]. The molecule further gave an inhibitory activity (endpoint profiling assays) with iPGM orthologues of 2 to 20 nM.

Usually Kd stands for the equilibrium constant for the complex coming apart. Low values mean a tighter complex, high ones a looser complex. For the molecule YDYPGDYCYLYGTCG (modifications not checked) [Ce-2 (ipglycermide B)], the Max Inhibition was -98.8 in [8]; -100 in assay [2]; -5.9 in [3]; -102 in assay [4]; -0.3 in [5]; -98.2 in assay [9]. Also, the figures for the pEC50 (GEMBE) in assay [8], in assay [2] and in assay [4] were 8.37 pEC50, 8.36 pEC50 and 8.49 pEC50, respectively. Moreover, the pIC50 is 8.27 pIC50 (M) in assay [8]; 8.65 pIC50 (M) in assay [2]; 8.78 pIC50 (M) in assay [4]; 7.72 pIC50 (M) in assay [9]; 7.78 pIC50 in assay [11]; 8.63 pIC50 in assay [6]. Also, the pIC50 in assay [7] amounted to 9.64 pIC50; in assay [12] it was 7.63 pIC50. In [2], this molecule came in with a Max Inhibition (* iPGM 500 pM) of -101. Moreover, the pIC50 (* iPGM 500 pM) in [2] is 9.6 pIC50 (M). For the same molecule, the figures for the Max Inhibition (* series) in assay [3] and in assay [5] were 2.7 and 1.9, respectively. Besides, the fold enhancement in affinity against linear Ce-L2 (from IC50s) in assay [4] worked out at 2000 fold; in assay [9], 10000 fold. In the assay with iPGM orthologues, the inhibitory activity (endpoint profiling assays) fell in the range of 2 to 20 nM. Besides, the half-maximal inhibitory concentration (IC50) in [11] was 17 nM and 16.8 nM; in [6], 2.3 nM and 2.34 nM; in assay [7] it was 230 pM; in [12], 23 nM and 23.5 nM. Further, the Kd in assay [13] turned out to be 0.073 nM.
